Measurements published in article PMC12847820, “Molecular characterisation of the Bacillus subtilis SpbK antiphage defence system” (Nature Communications, 2025).

Tests used:
[1] = target: MBP-SpbK G194R (Bacillus subtilis); assay: mass photometry + SEC-MALS; MBP-SpbK wild type and mutants in solution; 10 mM HEPES pH 7.5, 150 mM NaCl; Superdex 200 5/150 Increase for SEC-MALS; self-association
[2] = target: MBP-SpbK (full-length SpbK as a maltose-binding protein fusion) (Bacillus subtilis); assay: as above
[3] = target: MBP-SpbK D158R (Bacillus subtilis); assay: as above
[4] = target: the molecule itself; assay: mass photometry; YonE in solution; 10 mM HEPES pH 7.5, 150 mM NaCl; self-association

Work on MBP-SpbK G194R (natural protein) yielded a stoichiometry N [1] of 2.

“MBP-SpbK (full-length SpbK as a maltose-binding protein fusion) (natural protein)” gave a stoichiometry N [2] of 2.

For MBP-SpbK D158R (natural protein), the stoichiometry N [3] was 2.

B1: YonE (residues 46-506), portal protein of phage SPβ (natural protein, Bacillus subtilis phage SPβ, UniProt O31953 46-506, looked up)
chain: EAEQLKNYFSNPDEFQEEIEDLAQYFYISTAEIHQLFELIEALPTLNYKIDSFNKVKSSDKHISLLNKSLHKVKHKRLTRDLLKQVATAGTLVGIWLGDAKSPYPFIFDEIKYVFPSFRRNGDWVCVVDMELFTKYKDDQRNELLKSLSPYIKQSDYENFMKDREKYRFKELPQERTFPLRTGTLKRNQGLGTSWVTPGLYDVLHKKKLKDVERSIANKIINAVAVLTIGTDKGNGEYTNMKLPKAVKQKIHGGVKTALEKNQKDGVTVVSIPDFADINFPDVKADGLDGAKFDHINSDIQSAYGLSGSLLNGDGGNYATSSLNLDTFYKRIGVLMEDIEQEVYQKLFNLVLPAAQKDNYYMNYDKDKPLTLKEKMDILIKLNDKGWSIKHVVDNLAGVSWESYLEQTLYETEELKLQEKIRPYQTSYTFTGNEVGRPNEGNKNNDNTVKSATSNGNDNPI
notes: YonE, product of the SPβ gene yonE, portal protein; truncated construct lacking the first 45 residues, residues 46-506; Dodecamer by mass photometry and cryo-EM; printed theoretical mass of the dodecamer 665 kDa; also called wild-type YonE; YonE dodecamer; source: E. coli BL21 (DE3), autoinduction, purified (IMAC, SEC); copies: 12
B1 was tested, and the “stoichiometry N” value [4] was 12.
